Data reported in PMC8924275, “A peroxisomal heterodimeric enzyme is involved in benzaldehyde synthesis in plants” (Nature Communications, 2022).

Assays:
[1] = biological target: purified recombinant Arabidopsis thaliana benzaldehyde synthase α subunit (AtBSα) (Arabidopsis thaliana)
[2] = biological target: purified recombinant tomato (Solanum lycopersicum) benzaldehyde synthase α subunit (SlBSα) (Solanum lycopersicum (tomato))
[3] = test system: CC(C)(COP(=O)(O)OP(=O)(O)OC[C@H]1O[C@@H](n2cnc3c(N)ncnc32)[C@H](O)[C@@H]1OP(=O)(O)O)[C@@H](O)C(=O)NCCC(=O)NCCSC(=O)c1ccccc1; assay: purified protein; conditions: 4 mM NADPH, 50 mM Bis-Tris pH 6.5, 28 °C, α:β 1:1
Source text: HPLC-DAD detection of benzaldehyde, Michaelis-Menten fit on PdBS

AtBS = biological target: T1, AtBS (Arabidopsis thaliana, UniProt F4JFB8+Q9SG99); assay: HPLC-DAD detection of benzaldehyde, Michaelis-Menten fit; type: biochemical; conditions: 4 mM NADPH; 50 mM Bis-Tris pH 6.5; 28 °C; α:β 1:1
T1 construct: gene SDRD; CDS of both subunits from flower cDNA in pMAL-c5X (MBP-tagged), E. coli; amylose resin after 1:1 mixing; heterodimer
T1 sequence (F4JFB8 1-280): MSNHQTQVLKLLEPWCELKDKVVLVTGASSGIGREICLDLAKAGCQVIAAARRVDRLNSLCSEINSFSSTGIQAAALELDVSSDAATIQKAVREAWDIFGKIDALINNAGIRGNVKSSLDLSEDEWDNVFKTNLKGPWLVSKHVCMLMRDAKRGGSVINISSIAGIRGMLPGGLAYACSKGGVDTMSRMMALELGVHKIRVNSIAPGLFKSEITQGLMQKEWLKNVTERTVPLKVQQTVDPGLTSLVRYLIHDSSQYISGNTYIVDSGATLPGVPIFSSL
T1 sequence (Q9SG99 1-266): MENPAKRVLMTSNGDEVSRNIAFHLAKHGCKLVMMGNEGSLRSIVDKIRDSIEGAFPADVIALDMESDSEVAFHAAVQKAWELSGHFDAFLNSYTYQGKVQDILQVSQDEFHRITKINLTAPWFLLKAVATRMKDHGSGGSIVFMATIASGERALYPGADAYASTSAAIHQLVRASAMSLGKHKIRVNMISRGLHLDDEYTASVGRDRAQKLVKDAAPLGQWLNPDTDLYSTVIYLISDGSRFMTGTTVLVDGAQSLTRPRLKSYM
Source text: HPLC-DAD detection of benzaldehyde, Michaelis-Menten fit on AtBS

[4] = biological target: purified recombinant PhBSβ (from pMAL-c5X, MBP tag) (Petunia hybrida); assay: SEC; purified recombinant proteins at ~1 mg/mL on Superdex 200 Increase 10/300 GL in phosphate-buffered saline
[5] = biological target: purified recombinant Arabidopsis thaliana benzaldehyde synthase β subunit (AtBSβ) (Arabidopsis thaliana); assay: as above

In the case of “purified recombinant almond (Prunus dulcis) benzaldehyde synthase β subunit (PdBSβ) (natural protein)”, the apparent BS activity of the cross-species hybrid AtBSα-PdBSβ relative to AtBS (fold higher than AtBS) [1] is reported as 7.8 and the apparent BS activity of the cross-species hybrid SlBSα-PdBSβ compared with SlBS (fold higher than SlBS) [2] is reported as 2.7.
Work on PdBS (Prunus dulcis) yielded a Km [3] of 629.4 ± 67.7 µM, a Vmax [3] of 2.12 µmol/min/mg and a kcat [3] of 5.26 ± 0.2 s⁻¹. For the same compound, the kcat/Km [3] was 8400 ± 1000 M⁻¹ s⁻¹.
Compound `CC(C)(COP(=O)(O)OP(=O)(O)OC[C@H]1O[C@@H](n2cnc3c(N)ncnc32)[C@H](O)[C@@H]1OP(=O)(O)O)[C@@H](O)C(=O)NCCC(=O)NCCSC(=O)c1ccccc1` [benzoyl-CoA] has a Km (AtBS) of 243 ± 28.2 µM.
In the case of “purified recombinant tomato (Solanum lycopersicum) benzaldehyde synthase β subunit (SlBSβ) (natural protein)”, the apparent BS activity of the cross-species hybrid AtBSα-SlBSβ relative to AtBS (fold higher than AtBS) [1] is reported as 4.6.
“purified recombinant PhBSβ (from pMAL-c5X, MBP tag) (natural protein)” showed a stoichiometry N [4] of 4 and an apparent BS activity of the cross-species hybrid SlBSα-PhBSβ compared with SlBS (fold lower than SlBS) [2] of 6.5.
With “purified recombinant Arabidopsis thaliana benzaldehyde synthase β subunit (AtBSβ) (natural protein)” the stoichiometry N [5] was 4.
